Assay results as given in PMC5663815, “Macrophage migration inhibitory factor (MIF) modulates trophic signaling through interaction with serine protease HTRA1” (Cellular and Molecular Life Sciences: CMLS, 2017).

Target: T1, Recombinant human HTRA1 (R&D Systems, 2916-SE) (human, UniProt Q92743 23-480, RED-NHS dye label (Monolith NT Protein Labeling Kit RED-NHS), molar dye to protein ratio 5:1)
T1 construct: Serine protease HTRA1, human, recombinant, R&D Systems catalogue 2916-SE; In the functional rows the HTRA1 was full-length HTRA1 (pcDNA3) in medium of stably transfected HEK293 cells, not this bought protein; also called labeled HTRA1; source: bought: R&D Systems, 2916-SE
T1 sequence (Q92743 23-480): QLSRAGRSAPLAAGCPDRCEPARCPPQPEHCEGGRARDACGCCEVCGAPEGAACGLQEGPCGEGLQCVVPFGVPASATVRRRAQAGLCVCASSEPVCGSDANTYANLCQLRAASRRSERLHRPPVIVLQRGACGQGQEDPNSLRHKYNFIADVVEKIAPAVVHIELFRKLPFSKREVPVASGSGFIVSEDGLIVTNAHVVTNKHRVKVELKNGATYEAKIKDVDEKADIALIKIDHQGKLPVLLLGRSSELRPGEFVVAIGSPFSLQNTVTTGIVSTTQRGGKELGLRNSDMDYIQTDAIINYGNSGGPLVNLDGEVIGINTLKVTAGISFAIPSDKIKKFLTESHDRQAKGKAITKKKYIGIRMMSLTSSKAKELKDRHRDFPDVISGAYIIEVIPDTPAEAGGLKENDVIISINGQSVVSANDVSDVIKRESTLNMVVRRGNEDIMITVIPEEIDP
Assay: MST; labeled HTRA1 constant at 65 nM, unlabeled MIF titrated 2.28 nM to 1 µM; 50 mM Tris, 0.05% Tween-20, pH 8.0; 20 min at RT, 25 °C; Monolith NT.115, 40% LED, 80% MST power; Thermophoresis + T-jump signal
Conditions: both partners purified

B1: MIF (Pepro-Tech, 300-69) (natural protein, UniProt P14174 1-115, looked up)
chain: MPMFIVNTNVPRASVPDGFLSELTQQLAQATGKPPQYIAVHVVPDQLMAFGGSSEPCALCSLHSIGKIGGAQNRSYSKLLCGLLAERLRISPDRVYINYYDMNAANVGWNNSTFA
notes: also called unlabeled MIF; non-labeled MIF; source: bought: Pepro-Tech, 300-69
Kd: 147 nM
